Test results taken from the DeepSol protein solubility set.

Experiment: soluble on expression in E. coli; label from the status in PepcDB or PDB records

Sequence | soluble on expression in E. coli
MAGDIILRVEDLEKRFGGIVALDKVNLEIERGKVTLLIGPNGSGKTTLVNVISGFYKPDGGRVLFKGRDITGMSPHEISKLGLVRTFQIPKPFTNLTVLENVLTAADSPGENVYLAGLARRLWLGFEKRAAARAFEILGWVGLDHMWDRRSGELSGGQMKLLEIARAIMKGAEMIIMDEPAAGVNPRLAGSIMERIKYLAREKGITFLIIEHRIGLVKEYVDRVYAMSMGKVIASGKPDEVLNNPVVLESYLGG | soluble
MGSDKIHHHHHHMHRFKYDHPLDDGVRRRVMEELAALERRHHVRVLYACESGSRAWGFASPDSDYDVRFLYVHRPQWYLQVEPQRDVIELPLDDELDISGWELRKALQLLNRSNPTMFEWLQSPLVYRADEKAAAALRELMADFHSLGRCRWHYLSMARKNHRVHLQGETVRLKKYLYVLRPLLAVRWLDAGKGLPPMRFADLAAATVEDDGLAAEINHLLAIKMAAGEAQLGGRLPKLDAFIASMLAEPVPPLPGRHDGDVRRLDRLLQEWVMGSVREDGSAACEI | not soluble
MSLKIFDAHCDVLLQLWSAQGRKDFKHDSQLHITFEQLKRRKGSIQCFAIYVPETVAYENRFEVALQMVDIFYNEILSLPGVKFIQTKDDINMLKQDEIGAILTLEGCEAIGKDAMKIRLLYRLGVRSFGLTWNYANLLADGALETRGAGLTTSGKHVVQELNALHVWTDVSHLNERSFWDVIEIAKNPIASHSNCMKLCQHPRNLNDEQLKALIKRNGMIGVTFVPQFLTNEKQANVADIIRHIEYICSLGGENNIGFGSDFDGILETVVNVSAYRDYENVVNELCKHYAASTVERFLYDNFVEHISEGHHHHHH | not soluble
MNKLKYLQGYPEHILAQVAPMVENGKLAEWVKKKYPTMHDITSEKALFDYTQALKNKYIKKSSPLSKVVYDPKIHVVNNALGLHTFVSRIHGNKLKAKNEIRISSVFRKAPEPLLRMLVVHELAHIKEKEHNKAFYALCCHMEPEYHQLEFDARLYLTYLETLLEHHHHHH | soluble
MGSDKIHHHHHHLNNQIKIFEGNKIRSIWDNEKEEWYFSVVDVVAVLTESKDPQVYWRVLKKRLKEEGNKTVTNCNALKMKAADGKMRLTDVADMQGIFRIIQSVPSPKAEPFKMWLAEVGKERIDEIIDPELTIDRALETYLKKGYSREWINQRLQAIQVRKELTDTWQDHGVEKGKEYAILTNEITKAWSGMTTREYKDLKGLKKENLRDNMSTLELVLNMLAEATTTELTNATHPQGLEENKKVAKRGGSIAGNARKEIEQETGKSVITSKNAIDFVKLIEDVSSKEFEDKDKKDKD | not soluble
MPMRLQKSTMCGLYAVLELAANPDRQVSAGDIADKYDISLNHLAKVLRALVRARLIESVRGPGGGYRFAGNPKRVTLLDIIALFEDTGLDLQEAASDDHEESRALHKVLRDIDEIAMTTLRSVSITSLLKVIDTERRKTERGPNGASARHSSAGRA | not soluble
MLLEAPVYKEIFGAVTIHEVQKVIKMDTETEEVPIYTISNIPREKIYDLLGKMAVIVPMKNEKLHLVDGVLKAIPHKCPIIIVSNSKREGPNRYKLEVDLIRHFYNLTHSKIIMIHQKDPGLAKAFKEVGYTDILDENGMIRSGKGEGMLVGLLLAKAIGAEYVGFVDADNYIPGAVNEYVKDYAAGFLMSESEYTMVRLHWRHKPKVTKGTLYFKKWGRVSEITNHYLNLLVSEHTAFETTIMVTGNAGEHAMTMKLAEILPFSTGYSIEPYEIVYILERFGKWENVEEFKDVFDQGIEIFQIETLNPHFHEDKGKEHVKEMLLLSLATIYHSKLATDNLRKRILKDLRDHGILGENEEPPKPLVMRPIKEIPIKEWMDIVEGNSETLLRFEL | soluble
MVKATAIDMSLSDIISTNRKNKKVVKKPIKKSAGGIRKRGNASNVGTPRRQSGGTSRGGGRMGNTVRRSAGGSSNDNKQVRINISNLAETVISSDLQELFGAFNLHKVSVNFNENGGAAGTGDITLKKYDADRLIQKFAGVALDGKVMHFAVIESSNFARKPEIRGTPNRRQSSGKPINRKVANPPRRQNAAKPPVKKGKKPAREQKPPKTAEQLDAELDAYMSRSA | not soluble
GSGPTYCWNEANNPGGPNRCSNNKQCDGARTCSSSGFCQGTSRKPDPGPKGPTYCWDEAKNPGGPNRCSNSKQCDGARTCSSSGFCQGTAGHAAA | soluble
MSSRAVSLLSRVISQNRGLASLRETVGERDASLLYEPKFQDSREFPEYNTINVRIQGHDFGSLEKYQAYIHKTAKRFGFTVVDSYAVAAQTQKAITYKPYSTVSESEIDMSTYDRVVRLSDVAAPRFSLFSQIIRAHIPIGVTMTVKEHEKVDEDSRYIPDLLLKQKQEELKALDDPNVRRNLGWE | not soluble
MEKNWYVVHTYSGYENKVKANLEKRVESMGMQDKIFRVVVPEETETDVKNGKRKTTKKKVFPGYVLVEMVMTDDSWYVVRNTPGVTGFVGSSGAGSKPTPLMEEEVKMILKRMGMPLAEVDVDYEVNETVRIKEGPFANFTGKIEAIDPDKHKVKLLVDMFGRETRVELEFSQIEKI | not soluble
MQKNNNKLTMSARFGEWYKEATENCAERELYATSLIARMDWVVDPISSKSYRYDLTTDLNKNHSSAWYDVATEICNKRKETVIRAILEDNIKIENF | soluble
MGSDKIHHHHHHMLPNLKKALDGIVVCDFSWVGAGPIATNVLGQCGAEVIKIESKSRPDLLRTGGPFKDGINEGLERSGYFANRNPNKKGIALDMSHPKARAVAVRLIRKSDIVINNFRVGQMEKWGLGWEDVRKINPRIIYVTMSLQGETGPQKSYMGFGVNLNALCGLTAQACFPGERPFGTGTNYTDHVMAPSHTLFGIMAALLEREQTGEGQTVAISQLKSAISMAPTSAMTYAANGDTLGPAGLSDPNAAPHGLFTTLGYRRWIAIAVFSEDEWRALKKVMGNPAWAEDGKFGSLQSRKENEAELNEHMEAWTSRQHADKIMDELLRNGVRAGVVNDARGAIEDDHLREREFWSYLDHPVMGRTLYNRAPIRLSKTPLRMETAAPLLGQHTRDVLKGMLDYTDEEIAMLSEEKVLV | not soluble
KRFTADVEQQAEKILSQMTLDEKLSYIGGINWMYTRPLERFGIPRLKMSDGPQGLGTHGPSTAYPCALMLAATWNEQLATEYGSALGKDCRARGVHVLLGPAVNIYRAPMCGRNFEYMGEDPYLTSRMATGYIKGVQGQGVMATIKHFIANNSDYDRDHISSDIDERTLNEIYFPSFRAAVQEAEVGAVMSSYNLLNGIYTTEHPWLLKDVLRQQWGFKGILMSDWGSTHHCIPAVKGGLDLEMPAGSKMQPEELKYYLRTGDITIETIDEKVRHILQTLLAFGFRETQQPDTHIPLKNPQCAQTA | not soluble
MAHHHHHHMSELQSLTPETAFTVASTFLAYYYSEFVKLNELARMSDLYDERSYMTLVDFRDEVPVVAHGRNAVANLLAKLDSTLGQRKVEIITVDTVALPHNCVQVICQGVMYLREYRRVFLHVFMLEPTAYRTKTYHIASDYLRFVDSEKEVIPEGAVVIAADQVAAYLEESRRRVEEEQRRQLLEFQQRIRLQQQQLQMQQQQQQQKAAAMNMPAPASRQSRPAASASRDGGRPARGERKPREPRENRGERKPREPREPRGEHKPREGEEKVAAASPSRLAGEGKKGGERGNRKPAAAANAAKGTADTAAATPAPAAVRKPRRESGPTAAIIMLRVPKKIKLSDIKAELVSQGFSELKDLFWCGRDSAHAVVKFSTVEKATEAFETKPFKIQGESLNLDYYHE | soluble
MSLNVQGNLFRPLTLPNGLSLENRFVLSPMVTNSSTSEGFVTDDDIAYAVRRAKSAPLQITGAAYITEYGQLFEYGFSVSKDEDIPGLTKLAKAMKSKGAKAVLQLTHAGRFSSHTLARHGYVYGPSPMQLQSPYPHQVKELTHKDILRIIDEYVQATRRAIQAGFDGVEISSAQRLLIQTFFSTFSNQRKDEYGPQTLTNRCRLGLEVFKAVQKVIREEAESDFILGFRATPEETRGSQIGYSIEEFMEFLEKILAIAQVDYLAIASWGHDVFRNTIRSEGVYKGQLVNQVIFEHFGDRVPIMATGGINSASKVFEALQHAHMIGASTPLVVDPEFLQKIKAKCSDQINLRIKVSDLEGLAIPKASFKDIVPLMDYGESEGHHHHHH | soluble
MDSNSTTSFLSNGYNHKETLKLIEDMKNSASNKGILLYVNSPGGGVYESDELYLKLKEYKEETGRPVWTYMSNQACSGGYYISMASDKVFSNRNAWTGSIGVIISLTNLKGLYDNLGIKGIYITSGRNKAMGAADLELTDEQRDILQSLVDEAYEQFVEIVAEGRKMTVEEVKRIADGRILSAKQALELNLIDEIATYDEVKEAFQRRAWKC | not soluble
MIGGRLKSLRGKRTQEEIASHIGVSRARYSHYENGRSEPDYDTLQKLADYFQVTTDYLLTGKDKKSDDDMFSDPDLQLAYRDMQDFSPESKQQAIEFINYLKEKEKNRKPKNK | not soluble
MDIFSGLFTQVNNNNEEDLRVELQNMKPGEGVIRAEVGPSGVATFKKYFLQDGKLQFEIVKHPI | not soluble
MTPFPAYVPPDFTRPDLAAAPPVRVAEAPGSGVLPAGFHATSNYPEYVHLGGGRWLLASGSRMDAVLVLDGDMLRVVEPRLVRRGDRVVVGRTENGEEGIYVHTTGFDAPAGAGGDKFTFRSRGTRESPFSRSYEELYDILRHDRDHGHIVWVLGPAVAFDRDSRAAMAGLIGGGYCHALLAGNALATHDLEAALFHTGLGQDIYTQALVAGGHYHHLDVINEVLRHGSLERAIAELGIRDGIIRACLEHRVPVVLAGSIRDDGPLPDVITDSRQAQDAMRAHARRATTVIALATQLHAIAVGNMTPSYRVLDDGTVRPVYFYIVDMSEFGADKLANRGSGQARAILTNVQDFMVNLWNNLKG | not soluble
MDRPSRITRFFMGIVSWAERLNLKYAKLGNPPVYDNATFPWSAEIEKEWPAIRKELDKILLRQSKLPSFQDISTDVKTISTDNRWKTFFLLGFGVKSEQNIKACPETWRIVNKIPGLTTAMFSIFEPGKHLPPHRGPYNGVLRLHLGLIVPEPNDHWRSAWTARSATGTKARCLEHHHHHH | not soluble
METIKSVDIYELGSPGEKSSPWSSTILIVKLTSSNGNIGYGEAPTTFMTLPVKESMREVERVFKDQNYFNIEKNMREFYKHSFYLSRSMEATSALSAFEIASWDLIGKDLGTPVYNLLGGEYNSELRAYANGWYSDCLEPDDFVSRAKEYIKKGYTAFKFDPFRNNFDRIGNDGIKKAVDIVSAMRSELGENIDLLIECHGRFSTKYAIKVGQALDEFNPLFIEEPIHPEMELGLFDFKRYVNTPVALGERLLNKEDFARYISQGMVDIVQADLTNSKGILEAKKISAIVESFGGLMAFHNAFGPVQTAATLNVDYTLTNFLIQESFEDSWPDWKRNLFSGYRIENGHFKLSGKPGLGITADEKLMEKLIYDGMEEFNKNEPSWVVSGTYK | not soluble
MAHHHHHHMGTLEAQTQGPGSMKLAINGFGRIGRNVFKIAFERGIDIVAINDLTDPKTLAHLLKYDSTFGVYNKKVESRDGAIVVDGREIKIIAERDPKNLPWAKLGIDVVIESTGVFSSATSDKGGYLDHVNHAGAKKVILTVPAKDEIKTIVLGVNDHDINSDLKAVSNASCTTNCLAPLAKVLHESFGIEQGLMTTVHAYTNDQRILDLPHSDLRRARAAALSIIPTSTGAAKAVGLVLPELKGKLNGTSMRVPVPTGSIVDLTVQLKKKDVTKEEINSVLRKASETPELKGILGYTEDPIVSSDIKGNSHSSIVDGLETMVLENGFAKILSWYDNEFGYSTRVVDLAQKLVK | soluble
PKDDRLSAWKFWALYAADTGGALRIDAGAVAAVTAGGNSLLAVGITEVIGDFHAGEIVEILGPEGEIIGRGEVAYDSAVLITMLGKQTAQLPEGLQRPVVHADYLSDYASRA | not soluble
AELTCTDVSGLTAEEIQMRESLQYTDHSPYPDKTCANCQLYVPAESPDQCGGCQLIKGPIHPNGYCTSWVQKAT | soluble
